# From US20110262445A1 (CEPHALON AUSTRALIA, published 2011)
# B1: PMA202 (antibody, V domains shown)
# VH: QIQLVQSGPELKKPGETVKISCKASGYTFTNYGMNWVKQAPGKGLKWMGWINTYTGEPTYADDFKGRFAFSLETSASTAYLQINNFKNEDTATYFCARSLSTMITTTFAYWGQGTLVTVSS
# VL: SIVMTQTPKFLLVSAGDRVTITCKASQSVSNDVAWYQQKPGQSPKLLIYYASNRYTGVPDRFTGSGYGTDFTFTISTVQAEDLAVYFCQQDYSSPYTFGGGTKLEIKR
# notes: Murine hybridoma antibody, murine IgG1kappa
# B2: PMA204 (antibody, V domains shown)
# VH: EVQLQQSGADLVRSGASIKLSCTASGFNIKDYYMHWVKQRPEQGLEWIGWIDPENGDTEYAPKFQGKATMTADTSSNTAYLQLSSLTSEDTAVYYCNACKELRYFDVWGAGTTVTVSS
# VL: DIVLTQSPATLSVTPGDSVSLSCRASQSISINLHWYQQKSHESPRLLIKFASQSISGIPSRFSGYGSGTDFTLSINSVETEDFGRYFCQQSNSWPLTFGAGTKLELKR
# notes: as for B1
# B3: Antibody 1 (antibody, human IgG1, kappa, V domains shown)
# VH: B2 VH
# VL: B2 VL
# notes: Chimeric PMA204, human IgG1/kappa
# B4: Antibody 183 (antibody, human IgG1, kappa, V domains shown)
# VH: QVQLVQSGAEVKKPGASVKVSCKASGYTLTDYYLHWVRQAPGQGLEWMGWIDPENGDTEYAPKFQGRVTMTTDTSTSTAYMELRSLRSDDTAVYYCNANKELRYFDVWGQGAMVTVSS
# VL: EIVMTQSPATLSVSPGERATLSCRASQSISINLHWYQQKPGQAPRLLIYFASQSISGIPARFFGSGSGTEFTLTISSLQSEDFAVYYCQQSNSFPLTFGGGTKVEIKR
# notes: also called CU-A6 as IgG
# Columns and labels:
# [1] = molecular target: T1, Antibody 136; test: SPR control: PMA202 injected over Antibody 136 captured on Protein A, no cytokine
# T1 construct: Humanized PMA204 (1RZ7 framework)
# Description: (§1) Protein A (Thermo) was immobilized onto a CM5 sensor chip using a BIAcore 3000. Chimeric or humanized antibody at 5 ug/mL in HBS-P (GE Healthcare) was then injected for 1 min at a flow rate of 20 ul/min. IL-12 or IL-23 was then injected over the surface at 5 ug/mL in HBS-P for 1 min at a flow rate of 20 ul/min. Murine antibody was then injected at 5 ug/mL in HBS-P for 1 min at a flow rate of 20 ul/min. Controls in which IL-12 or IL-23 was replaced with HBS-P, and in which the murine antibody was replaced with HBS-P were also performed. All data was substrated from a control run in which IL-12 or IL-23 or the murine antibody was tested for background binding to the Protein A surface.
# [2] = molecular target: T2, human IL-12 (human, UniProt P29460 23-328; P29459 23-219); test: neutralization ELISA: IL-12 preincubated with antibody, its binding to coated IL-12Rβ2/Fc is blocked
# T2 construct: Recombinant (Peprotech); FLAG-tagged IL-12 in the flow cytometry assays, biotinylated in the IL-12Rβ2 assay; also called hIL-12
# T2 sequence 1: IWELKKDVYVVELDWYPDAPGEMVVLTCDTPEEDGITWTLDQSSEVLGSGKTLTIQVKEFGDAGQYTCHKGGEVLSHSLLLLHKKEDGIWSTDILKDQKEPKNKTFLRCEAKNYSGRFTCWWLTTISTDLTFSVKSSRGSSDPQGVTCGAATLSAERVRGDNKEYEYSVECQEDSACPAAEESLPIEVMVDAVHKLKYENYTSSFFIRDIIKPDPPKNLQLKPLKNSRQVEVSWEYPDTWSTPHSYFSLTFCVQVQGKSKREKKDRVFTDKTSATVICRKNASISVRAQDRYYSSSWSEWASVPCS
# T2 sequence 2: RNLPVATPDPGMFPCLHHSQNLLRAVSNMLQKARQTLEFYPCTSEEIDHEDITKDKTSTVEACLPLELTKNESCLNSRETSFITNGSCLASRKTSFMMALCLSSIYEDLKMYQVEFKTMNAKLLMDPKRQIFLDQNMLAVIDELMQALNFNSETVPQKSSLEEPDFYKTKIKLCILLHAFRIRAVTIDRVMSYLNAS
# Summary of the method: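 IL-12Rβ2/Fc chimera at 5 ug/ml in carbonate buffer was coated overnight at 4° C and blocked with 1% BSA for 1 hour at 25° C. Biotinylated IL-12 was preincubated with titrated antibody for 2 hours, then added to the wells for 2 hours at 25° C. Detection used Streptavidin HRP 1:5000 and TMB, stopped with 1M HCl, with absorbance read at 450 nm (reference 620 nm). IC50 was read off the curve.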
# [3] = molecular target: T1, Antibody 136; test: SPR control: PMA204 injected over Antibody 136 captured on Protein A, no cytokine
# Description: as §1
# [4] = molecular target: T3, human IL-23 (human, UniProt P29460 23-328; Q9NPF7 20-189); test: neutralization ELISA: IL-23 preincubated with antibody, its binding to coated IL-23R is blocked
# T3 construct: Recombinant (Ebioscience); HIS-tagged in flow cytometry, biotinylated in some assays; also called hIL-23; rhIL-23
# T3 sequence 1: T2 sequence 1
# T3 sequence 2: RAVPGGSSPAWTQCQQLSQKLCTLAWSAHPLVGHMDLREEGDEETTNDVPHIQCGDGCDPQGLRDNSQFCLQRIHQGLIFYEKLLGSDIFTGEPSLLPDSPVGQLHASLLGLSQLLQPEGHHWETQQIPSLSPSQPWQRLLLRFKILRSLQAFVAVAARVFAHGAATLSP
# Summary of the method: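 His-tagged IL-23R made in HEK-293E cells was coated in carbonate buffer overnight at 4° C and blocked with 1% BSA. Biotinylated IL-23 at 50 ng/ml was preincubated with titrated antibody for 2 hours, then added to the wells for 2 hours at 25° C. Detection used Streptavidin HRP 1:5000 and TMB for 15 minutes, stopped with 1M HCl, read at 450 nm (reference 620 nm). IC50 was read off the curve.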
# [5] = molecular target: T2, human IL-12; test: ELISA, coated IL-12
# Description: (§2) IL-12 (Peprotech), IL-23 (Ebioscience™), IL-12p40 (Ebioscience™) or IL-12p80 (Peprotech), was diluted to 1 μg/mL in carbonate coating buffer ([…] pH 9.6) and coated onto a 96 well plate (Nunc™, Maxisorp™) overnight at 4° C. The plate was then washed three times with wash buffer (0.01M PBS pH 7.2, 0.05% Tween-20) and then three times with 0.01M PBS pH 7.2. The wells were then blocked by adding 200 μl of blocking buffer (1% w/v BSA in 0.01 M PBS pH 7.2) to each well and incubating the plate at 25° C. for 1 hour. The antibody was diluted in antibody diluent (1% w/v BSA, 0.05% Tween-20 in 0.01M PBS pH 7.2) sufficient to generate a titration curve. The wells were incubated with the antibody for 1 hour at 25° C. The plate was then washed as previously described. Goat anti-human immunoglobulin G (H+L) antibody HRP conjugate (Zymed®) at 1:2000 in antibody diluent was used to detect bound primary antibody. Goat anti-murine immunoglobulin antibody HRP conjugate (Dako) at 1:2000 in antibody diluent was used to detect bound murine antibody. After incubation at 25° C. for 1 hour the plate was washed again as previously described. TMB substrate solution (Zymed®) was added to each well and the colour allowed to develop; the reaction was terminated by adding 1M HCl to the wells. The absorbance of each well was determined at 450 nm (ref. 620 nm).
# [6] = molecular target: T3, human IL-23; test: ELISA, coated IL-23
# Description: as §2
# [7] = molecular target: T3, human IL-23; test: SPR, IgG on Protein A
# Description: (§3) Using a SPR 3000, Protein A was immobilized onto FC1 and FC2 (or alternatively FC3 and FC4) of a CM5 research grade sensor chip using amine coupling, giving approximately […] RU. FC1 was used a blank throughout the experiments. The experiments were run in HBS-P buffer (SPR). At a flow rate of 20 μl/min, 20 μl of 5 μg/mL of antibody was passed over FC2. IL-12, IL-23 or IL-12p40 (Peprotech) were passed over the surface of FC1 and FC2 at concentrations ranging from 66 nM to 2 nM. Regeneration of the surface was performed using 10 mM Glycine, pH 1.0. The sensorgram data from FC2 was subtracted from FC1 and a buffer only control. The curves were fitted using a 1:1 Langmuir equation to generate the kd, ka and KD values. All curves were fitted with a χ² of less then 2.0 where possible.
# [8] = molecular target: T4, human IL-12p40 (human, UniProt P29460 23-328); test: SPR, IgG on Protein A
# T4 construct: p40 monomer; also called p40 subunit
# T4 sequence: T2 sequence 1
# Description: as §3
# [9] = molecular target: T2, human IL-12; test: SPR, IgG on Protein A
# Description: as §3
# [10] = molecular target: T3, human IL-23; test: SPR, IgG on Protein A; remark: listed apart in the source
# Description: as §3
# [11] = molecular target: T2, human IL-12; test: SPR, IgG on Protein A; remark: listed apart in the source
# Description: as §3
# [12] = molecular target: T4, human IL-12p40; test: ELISA, coated IL-12p40
# Description: as §2
# [13] = molecular target: T3, human IL-23; test: SPR, IgG
# Description: (§4) CU-A6 was converted to Antibody 183, CP-A6 was converted to Antibody 184 and AW-F2 was converted to Antibody 207 by addition of a human heavy chain Fc region (SEQ ID NO: 8) and a constant kappa light chain region (SEQ ID NO: 9). IgG molecules were expressed by co-transfecting the heavy and light chain construct for each antibody into HEK 293E cultures. The expressed IgGs were purified by affinity chromatography and gel exclusion and the resulting monomeric molecules were tested for IL-12 and IL-23 binding by SPR (TABLE 6). All three IgG variants retained binding activity against both analytes with a visible improvement in kd compared to the parental wild-type IgG. Based on this, it is reasonable to expect that scFv variants described in TABLE 4 could be converted to the IgG format and retain improved binding characteristics against IL-12 and IL-23.
# as §3
# [14] = molecular target: T2, human IL-12; test: SPR, IgG
# Description: as §4, §3
# [15] = molecular target: T3, human IL-23; test: SPR, IgG; LOD estimated 1 × 10^-5 s^-1
binder,measurement,setting,value
B1,binding result,[1],no binding
B2,IC50 (read off the curve),[2],~0.2 µg/mL
same,binding result,[3],no binding
same,IC50 (read off the curve),[4],~0.6 µg/mL
same,EC50 (read off the curve),[5],~0.02 µg/mL
same,EC50 (read off the curve),[6],~0.01 µg/mL
B3,IC50 (read off the curve),[2],~0.4 µg/mL
same,Kd,[7],0.0446 nM
same,koff,[7],0.000114 s⁻¹
same,kon,[7],2.55e+06 M⁻¹ s⁻¹
same,Kd,[8],0.0663 nM
same,koff,[8],7.12e-05 s⁻¹
same,kon,[8],1.07e+06 M⁻¹ s⁻¹
same,Kd,[9],0.0477 nM
same,koff,[9],6.45e-05 s⁻¹
same,kon,[9],1.36e+06 M⁻¹ s⁻¹
same,IC50 (read off the curve),[4],~1 µg/mL
same,Kd,[10],0.0513 nM
same,koff,[10],0.000146 s⁻¹
same,kon,[10],2.85e+06 M⁻¹ s⁻¹
same,Kd,[11],0.0795 nM
same,koff,[11],0.000132 s⁻¹
same,kon,[11],1.67e+06 M⁻¹ s⁻¹
same,EC50 (read off the curve),[12],~0.03 µg/mL
B4,Kd,[13],≤ 0.0027 nM
same,kon,[13],400000 M⁻¹ s⁻¹
same,Kd,[14],0.065 nM
same,koff,[14],0.00027 s⁻¹
same,kon,[14],4.1e+06 M⁻¹ s⁻¹
same,koff,[15],< 1e-05 s⁻¹
